2 substances from patent US20240398911A1 can be followed below.

Test [1] deals with myc-tagged full-length S of SARS-CoV-2 variant P.1 (Gamma) expressed on Expi293F cells (SARS-CoV-2 P.1 (Gamma)).
Test [2] concerns the target myc-tagged full-length S of SARS-CoV-2 variant B.1.351 (Beta) expressed on Expi293F cells (SARS-CoV-2 B.1.351 (Beta)).
In test [3] the target is myc-tagged full-length S of SARS-CoV-2 variant B.1.1.7 (Alpha) expressed on Expi293F cells (SARS-CoV-2 B.1.1.7 (Alpha)).

Turning to REGN10987 (imdevimab) (antibody), the results for the EC50 (read off the curve) in test [1] and in test [2] were 0.2 nM and 0.3 nM, respectively.
Take “sACE22.v2.4 fused to human IgG1 Fc (Fc fusion)”: the figures for the EC50 (read off the curve) in test [3] and in test [1] were 0.7 nM and 0.8 nM, respectively.
